This passage reports SNR (signal-to-noise ratio on the microarray) and IC50 of inhibition of PLpro enzymatic activity (dose-response curve, Figure 5C) results from publication PMC12737678.

For one assay, the target named is oxytocin (UniProt P01178). Description: small-molecule microarray.
The target of assay [1] is SARS-CoV-2 papain-like protease (PLpro) (SARS-CoV-2).

oxytocin, sequence (P01178 whole entry, looked up): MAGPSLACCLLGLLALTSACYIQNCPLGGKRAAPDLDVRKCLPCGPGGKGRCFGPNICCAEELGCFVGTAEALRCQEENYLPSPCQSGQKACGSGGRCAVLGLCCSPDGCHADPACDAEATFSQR

Regarding “SARS-CoV-2 main protease (Mpro) (enzyme)”, the SNR (signal-to-noise ratio on the microarray) with oxytocin was found to be 5.53.
Same read-out and setting: for “SARS-CoV-2 papain-like protease (PLpro) (enzyme)” the value was 6.52.
Regarding “oxytocin (from UniProt P01178 20-28) (peptide)”, in assay [1], the IC50 of inhibition of PLpro enzymatic activity (dose-response curve, Figure 5C) was 4.92 µM.
